Results published in patent US20250277032A1 (BIOND BIOLOGICS, published 2025).

Target: T1, human ILT3 on the cell surface (recombinant human ILT3 exogenously overexpressed on HEK cells); ILT3 on THP-1 … (human, UniProt Q8NHJ6 22-448)
T1 construct: whole, on cells; also called membranal ILT3; hILT3
Assay: flow cytometry on HEK cells overexpressing recombinant human ILT3

binding result | Binder
binds | 3F6 (antibody, V domains shown, Hybridoma (mouse) antibody) VH: EVKLVESGGGLVKPGGSLKLSCAASGFTFSSYAMSWVRQTPAKRLEWVAAITFGGGNTYYPDSVKGRFTISRDNARNTLYLQMSSLRSEDTAMYYCARHGDGNYDFYAMDYWGQGTSVTVSS VL: DIVMTQSPSSLTVTAGEKVTMSCKSSQSLLNSGNQKNYLTWYQQKPGQPPKLLIYWASTRESGVPDRFTGSGSRTDFTLTISRVQAEDLAVYYCQNDYSYPLTFGAGTKLELK
binds | 7A5 (antibody, V domains shown, Hybridoma (mouse) antibody) VH: EVKLVESGGGLVKPGGSLKLSCAASGFTFSSYAMSWVRQTPAKRLEWVATISSDGGNTYYTDSVKGRFTISRDNARNTLDLQMSSLRSEDTAMYYCARHDGRGALDYWGQGTSVTVSS VL: DIQMTQTTSSLSASLGDRVTISCRASQDISNYLNWYQQKPDGTVKLLIYYTSRLHSGVPSRFSGSGSGTDYSLTISNLEQEDIATYFCQQGNTLPWTFGGGTKLEIK
